What all share (assay): cell-based or functional assay
Test [1] concerns the target HIV-1 92TH021 envelope protein (Env) on pseudovirus (HIV-1).
For test [2], the target named is HIV-1 JR-CSF Env I414A (HIV-1 (isolate JR-CSF)) (UniProt P20871).
In test [3] the target is HIV-1 JR-CSF Env I420A (HIV-1 (isolate JR-CSF)) (UniProt P20871).
For test [4], the target named is HIV-1 JR-CSF Env T394A (HIV-1 (isolate JR-CSF)) (UniProt P20871).
Test [5] deals with HIV-1 envelope glycoprotein (Env) of isolate APV_6, on pseudovirus (HIV-1).
Test [6] deals with HIV-1 envelope glycoprotein (Env) of isolate MG RM-A-006, subtype A (HIV-1).
For test [7], the target named is HIV-1 envelope glycoprotein (Env) of isolate MGRM-AE-003, subtype AE (HIV-1).
The target in test [8] is HIV-1 envelope glycoprotein (Env) of isolate NL43, on pseudovirus (HIV-1).
The target in test [9] is HIV-1 Env of isolate MGRM-F1-021 (HIV-1).
Test [10] deals with HIV-1 Env of isolate 92RW009 (subtype A) (HIV-1).
Test [11] has as its target HIV-1 Env of isolate MGRM-C-014 (subtype C), on pseudovirus (HIV-1).
The target of test [12] is HIV-1 Env of isolate MGRM-C-019 (subtype C), on pseudovirus (HIV-1).
The target of test [13] is HIV-1 Env of pseudovirus isolate MGRM-Chronic-B-002 (clade B) (HIV-1).
Test [14] deals with HIV-1 Env of pseudovirus isolate MGRM-Chronic-B-003 (clade B) (HIV-1).
Test [15] addresses HIV-1 92RW020 envelope (Env) on pseudovirus (HIV-1).
The target in test [16] is HIV-1 Env of isolate 6535.3 (Acute), clade B (HIV-1).
The target in test [17] is HIV-1 Env of isolate 92RW020 (Clade A) (HIV-1).
Test [18] concerns the target HIV-1 Env of isolate 92UG046 (clade D pseudovirus) (HIV-1).
Test [19] addresses HIV-1 Env of isolate MGRM-A-007 (clade A pseudovirus) (HIV-1).
Test [20] deals with HIV-1 Env of isolate MGRM-D-019 (clade D pseudovirus) (HIV-1).
Test [21] has as its target HIV-1 Env of isolate MGRM-D-028 (clade D pseudovirus) (HIV-1).
For test [22], the target named is HIV-1 Env of pseudovirus MGRM-G-011 (HIV-1).
Test [23] addresses HIV-1 MGRM-AG-013 Env (pseudovirus) (HIV-1).

The results in this text go back to patent US20240132578A1.

Turning to 4858_P08 (PGT-123) (antibody), the IC50 (ug/mL), pseudovirus neutralization in [1] was above 10 µg/mL. For the same substance, the Fold IC50 increase relative to wild-type (pseudovirus neutralization) in test [2] came to 0.3 fold; in test [3] it was 3.2 fold; in [4], 0.4 fold. Moreover, the IC50, pseudovirus neutralization in test [5] is 0.023 µg/mL; in test [6], above 50 µg/mL; in [7], above 50 µg/mL; in test [8], above 50 µg/mL.
Regarding 4838_L06 (PGT-121) (antibody), the IC50 (ug/mL), pseudovirus neutralization in test [1] was above 10 µg/mL. The IC50, pseudovirus neutralization in test [5] was 0.018 µg/mL; in test [6], 0.396 µg/mL; in [7], above 50 µg/mL; in [8] it was above 50 µg/mL.
Regarding 5145_B14 (PGT-127) (antibody), the Fold IC50 increase relative to wild-type (pseudovirus neutralization) in [2] was 2.2 fold; in test [3], 1.8 fold; in test [4], 1.6 fold. Moreover, the IC50, pseudovirus neutralization in test [5] was 0.04 µg/mL; in test [6] it was above 50 µg/mL; in [7], above 50 µg/mL; in test [8] it was above 50 µg/mL.
For the substance PGV04 (antibody), in [9], the IC50 (µg/mL), pseudovirus neutralization is 0.031 µg/mL.
With 4970_K22 (PGT-144) (antibody), the results for the IC50, pseudovirus neutralization in test [10], in test [13] and in test [14] were 0.893 µg/mL, above 50 µg/mL and 7.41 µg/mL, respectively. In addition, the IC50, single-round pseudovirus neutralization in test [11] is above 50 µg/mL; in test [12], 0.513 µg/mL.
On to 4995_E20 (PGT-142) (antibody), for which the IC50, pseudovirus neutralization in test [10] is 0.006 µg/mL; in test [13], above 50 µg/mL; in [14], 0.484 µg/mL. Moreover, the IC50, single-round pseudovirus neutralization turned out to be 6.02 µg/mL in test [11] and 0.003 µg/mL in test [12].
As to 4877_D15 (PGT-122) (antibody), in [1], the IC50 (ug/mL), pseudovirus neutralization is above 10 µg/mL. The IC50, pseudovirus neutralization in test [5] was 0.019 µg/mL; in [6], above 50 µg/mL; in test [7], above 50 µg/mL; in [8], above 50 µg/mL.
4993_K13 (PGT-141) (antibody): the IC50, pseudovirus neutralization in test [10] is 0.022 µg/mL; in test [13], above 50 µg/mL; in test [14] it was 0.4 µg/mL. For the same substance, the results for the IC50, single-round pseudovirus neutralization in [11] and in [12] were 11.8 µg/mL and 0.008 µg/mL, respectively.
5141_B17 (PGT-126) (antibody) returned an IC50 (ug/mL), pseudovirus neutralization in [1] of 0.115 µg/mL. Besides, the Fold IC50 increase relative to wild-type (pseudovirus neutralization) in [2] stood at 0.4 fold; in test [3], 0.6 fold; in test [4] it was 0.6 fold. Besides, the IC50, pseudovirus neutralization in [5] was 0.007 µg/mL; in test [6], above 50 µg/mL; in test [7] it was above 50 µg/mL; in test [8] it was above 50 µg/mL.
In the case of 5123_A06 (PGT-125) (antibody), in test [1], the IC50 (ug/mL), pseudovirus neutralization is 0.0066 µg/mL. Also, the Fold IC50 increase relative to wild-type (pseudovirus neutralization) in test [2] was determined as 0.3 fold; in test [3], 1.1 fold; in [4], 0.6 fold. In addition, the IC50, pseudovirus neutralization in test [5] is 0.021 µg/mL; in test [6], above 50 µg/mL; in [7] it was 0.092 µg/mL; in [8] it was above 50 µg/mL.
1496_C09 (PG9) (TCN-109) (antibody) had a neutralization IC50 in test [15] of 0.0637 µg/mL. In addition, the IC50 (ug/mL), pseudovirus neutralization in test [1] amounted to 0.103 µg/mL. Moreover, the IC50 (µg/ml), pseudovirus neutralization was 0.22 µg/mL in test [16], 0.37 µg/mL in [19], 0.19 µg/mL in [22] and 0.23 µg/mL in test [23]. In test [17], this substance gave an IC90 (neutralization of pseudovirus) of 6.55 µg/mL. In addition, the IC50, pseudovirus neutralization in [18] amounted to 0.64 µg/mL; in [20], 0.03 µg/mL; in test [21] it was 4.39 µg/mL.
